According to US20040175378A1, “Selected antibody compositions and methods for binding to aminophospholipids” (Board of Regents, The University of Texas System, priority 2002, published 2004):

Experiments:
[1] = Binding to heparin, heparan sulfate and DNA
[2] = tested on: orthotopic MDA-MB-231 breast cancer; assay: 3G4 tumor treatment and histology; type: in vivo, mice
Experimental: FIG. 17A and FIG. 17B. […] At the conclusion of treatment, animals were perfused and tumors were snap-frozen, cut and stained with an antibody to murine CD31 (rat, anti-mouse CD31), a pan-endothelial marker of murine vasculature (FIG. 17A), or embedded in paraffin and strained with H&E (FIG. 17B).
In the orthotopic model, 1×10^7 cells in 0.1 ml DMEM are typically injected into MFP of anesthetized mice. Mice are anesthetized with 0.075 ml of mouse cocktail injected IP. The mouse cocktail is 5 ml Ketamine (100 mg/ml); 2.5 ml Xylazine (20 mg/ml); 1 ml Acepromazine (10 mg/ml); 11 ml sterile water. Dosage is 0.1 ml per 20-30 grams body weight via the IP route for a duration of 30 minutes.
Once the mouse is anesthetized, as measured by no response to toe/foot pinch, the mouse is laid on its left side and wiped with 70% ethanol just behind the head and around the right forearm/back area. […] 0.1 ml of cells are injected into the fat pad using a 1 ml syringe and a 27-gauge needle, producing a bleb in the fat pad. The incision is closed using a 9 mm sterile wound clip. The mouse is returned to its cage and observed until it has wakened from anesthesia and is mobile. Post-operative health status is determined, and if any signs of distress are observed, the animal is given acetaminophen (0.24 mg/ml)+codeine (0.024 mg/ml) in the drinking water. The wound clip is removed after 1 week. This method is used so that the cells are accurately placed into the selected site and not into the subcutaneous region. Tumors will be approximately 200 μl in volume (L×W×W) in 14-15 days and the take rate is essentially 100%.
Treatment was repeated 3 times a week. Animals were monitored twice a week for tumor measurements.

[3] = tested on: orthotopic MDA-MB-435 breast cancer; assay: 3G4 and ch3G4 tumor treatment; type: in vivo, mice
Experimental: Tumors were also established using MD-MBA-435s cells and treated as described above. […] The treatment of large L540 tumors, MDA-MB-231 and MD-MBA-435s tumor cells for 60 days is shown in FIG. 8D, FIG. 8E and FIG. 8F. The antibodies caused tumor vascular injury, thrombosis and necrosis and retarded tumor growth, with no evidence of toxicity.
MD-MBA-435s lucerifase cells were obtained from Dr. Angels Sierra Jimenez, Barcelona, Spain and were grown in 10% DMEM. Mice were injected with tumor cells as described as above, and at 2 weeks post injection, the tumors were measured and the volume recorded. […] Treatment was initiated by IP injection (800 μg) at day 15 and continued with injections of 200 μg every two to three days until the final injection of 400 μg at day 35. Tumor volumes and mouse body weights were measured on injection days. Mice were sacrificed and perfused with saline for 12 minutes. The organs and tumor were removed, snap-frozen in liquid nitrogen and the tumor sectioned for immunohistochemistical analysis.

human CMV AD169 [4] = assay: CMV viral load by plaque assay; type: cell-based; settings: for decrease in viral titer: high m.o.i.
[5] = Liposome competition for 3G4 binding to immobilized PS; settings: 3G4 0.1 μg/ml
Experimental: Liposomes were prepared from solutions of 5 mg of a single phospholipid in chloroform. The solutions were dried under nitrogen to form a thin layer in a round-bottomed glass flask. Ten ml of Tris buffer (0.1 M, pH 7.4) were then added and the flask was sonicated five times for 2 min. […] The mixture was added to PS-coated plates (after standard blocking), incubated for 1 hour, washed and the secondary antibody added. After 1 hour, the plates were washed and developed for 5 minutes using OPD.

bEnd.3 cells = assay: Growth of bEnd.3 cells in vitro; type: cell-based; settings: 20 μg to 40 μg total IgG per well, 48 and 96 hours
Experimental: 20% DMEM alone (control) or 20% DMEM containing the antibodies (20 μg to 40 μg total IgG per well) was added 4 hours after seeding. Each clone was tested on two separate plates in triplicates. Cells were detached 48 and 96 hours later, the cell count was determined in each well and the average cell number per treatment was calculated.

Toxicity of 3G4 in mice = type: in vivo, BALB/c mice
From the text: The following parameters were specifically examined.
There were no physical signs of toxicity, e.g. hair loss, loss of appetite, etc. […] Marrows in the treated animals were essentially completely cellular (as would be expected for a young mammal). Erythroid, granulocytic, lymphocytic progenitors and megakaryocytes were present in normal numbers.
Mice retain normal physical signs, bone marrow cellularity, white blood cell counts, histology and coagulation functions.

mCMV RVG102 = assay: Survival of mCMV-infected mice; type: in vivo, Balb/C mice; settings: 1 mg/mouse i.p. day 1, 0.5 mg/mouse every four days until day 26; past 90 days
Pichinde virus = type: cell-based
tumor cells = assay: Direct effect of 3G4 on tumor cells in vitro; type: cell-based
[6] = tested on: Tissue Factor (TF)-induced coagulation
[7] = mouse, in vivo, iv
RSV long strain = assay: RSV-infected A-549 cells, plaque assay; settings: MOI 1, 100 μg antibody per well
[8] = tested on: H2O2-treated HL-60 tumor cells; assay: Macrophage phagocytosis of PS-positive tumor cells; settings: 5 μg/ml, vs isotype-matched control antibody
various tumors = assay: 3G4 in syngeneic and xenogeneic tumor models, overall
human CMV AD169 [9] = assay: CMV-GFP infected HHF-R2 cells, fluorescent microscopy; settings: MOI 0.01
[10] = m.o.i. 0.01 pfu/cell, 100 μg/ml
[11] = 100 μg IP three times a week for 2 to 3 weeks

B1: 3G4: mouse IgG3 kappa monoclonal antibody binding PS and other anionic phospholipids; hybridoma ATCC PTA 4545 (antibody, V domains shown)
VH: EVQLQQSGPELEKPGASVKLSCKASGYSFTGYNMNWVKQSHGKSLEWIGHIDPYYGDTSYNQKFRGKATLTVDKSSSTAYMQLKSLTSEDSAVYYCVKGGYYGHWYFDVWGAGTTVTVSSATTTAPSVYPLVP
VL: DIQMTQSPSSLSASLGERVSLTCRASQDIGSSLNWLQQGPDGTIKRLIYATSSLDSGVPKRFSGSRSGSDYSLTISSLESEDFVDYYCLQYVSSPPTFGAGTKLELKRADAAPTVFIFGRIP
binding to heparin, heparan sulfate or double or single stranded DNA [1]: does not bind detectably | mice with long-term complete remissions ([2]; MBA-MD-231 tumors): 30% | reduction in microvascular density, treated vs. untreated mice ([2]; histological examination): 70% | growth retardation ([2]; orthotopic MDA-MB-231): 50% | tumor growth as opposed to control ([3]; i.p. 800 μg day 15, 200 μg every two to three days, 400 μg day 35): effectively retarded tumor growth | growth retardation ([3]; orthotopic MDA-MB-435): 70% | decrease in viral titer (human CMV AD169 [4]; addition delayed to 48 hours): 2 log10 | decrease in viral titer (human CMV AD169 [4]; addition up to 24 hours after infection): 5-6 log10 | decrease in viral titer as compared to GV39G-treatment (human CMV AD169 [4]; m.o.i. 0.01 pfu/cell, 50 μg/ml): 3.5 log10 | decrease in viral titer as compared to GV39G-treated cells (human CMV AD169 [4]; [10]): 6 log10 | inhibition of viral replication (human CMV AD169 [4]; [10]): approximately 99.9999% | inhibition of viral replication compared to GV39G (human CMV AD169 [4]; m.o.i. 3, 50 μg/ml): 3 logs | decrease in viral titer as compared to GV39G-treated cells (human CMV AD169 [4]; m.o.i. 3, 100 μg/ml): 5 log10 | binding to PS adsorbed to ELISA plates in the presence of liposomes [5]: blocked by liposomes prepared from PS, PA, PI, PG and CL | inhibitory effect on growth of bEnd.3 cells (bEnd.3 cells): particularly effective | blood cell counts (Toxicity of 3G4 in mice; [11]): no changes in blood cell counts | bodyweight (Toxicity of 3G4 in mice; [11]): gained weight at the same rate as BBG3 treated mice | toxicity (Toxicity of 3G4 in mice; 1 mg purified 3G4 intraperitoneally): no toxicity was observed | toxicity (Toxicity of 3G4 in mice; more than 200 mice, 0.1 mg three times a week for 2-3 weeks): no instance of toxicity has been observed | survival (mCMV RVG102): 100% | infected cells (Pichinde virus): about one in about a hundred cells | direct inhibitory effect on tumor cells (tumor cells): No direct inhibitory effect on tumor cells was observed | inhibition of Tissue Factor (TF)-induced coagulation [6]: weak inhibition | Volume of distribution [7]: 0.1 L/kg | half-life in the α-phase of clearance [7]: 3 h | half-life in the β-phase of clearance [7]: 120 h | decrease in viral titer (RSV long strain): 2 log10 | increase in phagocytosis of PS-positive cells by macrophages [8]: more than three fold | toxicity in treated tumor-bearing mice (various tumors; 100 μg i.p. 3 times a week): No toxicity was observed | localization after intravenous injection (various tumors; mice bearing various tumors): specifically and consistently localized to the tumor, but not to normal organs | entry of the virus into the cells (human CMV AD169 [9]; day 3, 50 and 100 μg/ml): does not appear to significantly inhibit the entry of the virus | spread of CMV from the original infected cell (human CMV AD169 [9]; day 9, 100 and 50 μg/ml): restricted to the original singly-infected cell
